Reference: patent US20070196275A1, “Diagnostic Imaging Compositions, Their Methods Of Synthesis And Use” (priority 2001, published 2007)

Tests used:
[1] = test system: Ara-C treated HL60 and Raji cells (apoptotic cells); experiment: Cell binding assay of radiolabeled PEGylated annexin V; set-up: species or system human; conditions: 1.0 μM Ara-C
Experimental: The 1:30 and 1:60 preps of PEGylated annexin V were tested for their ability to bind to cells that had been treated with Ara-C to induce apoptosis. Human leukemia HL60 or human B-cell lymphoma Raji cells (1×10^6 cells/ml each) were treated with Ara-C at 1.0 μM for 6 hours or 22 hours to induce apoptosis. The cells were then washed twice with PBS and re-suspended in binding buffer (10 mM HEPES/NaOH, pH 7.5 containing 140 mM NaCl and 2.5 mM CaCl2) at a concentration of 1×10^6 cells/ml. Five μl annexin V-FITC solution (50 μg/ml in 50 mM Tris-HCl, pH 7.5, containing 100 mM NaCl) was added into the control cells as well as treated cells. The mixtures were incubated at room temperature for 10 minutes. Apoptotic cells stained with annexin V-FITC (Sigma) were quantified with a Labsystems Fluoroskan FL flow cytometer (Helsinki, Finland) (FIG. 13). […] The cells were washed twice with PBS, centrifuged and counted for cell-associated radioactivity (FIG. 14). FIG. 13 is a bar graph showing apoptotic index after treatment with 1.0 uM Ara-C as quantified by flow cytometry analysis using annexin V-FITC as fluorescent probe. In FIG. 13, the y-axis represents the percent apoptotic cells; the x-axis represents the time after treatment in hours. […] In FIG. 14, the y-axis represents radioactivity in cpm; the x-axis represents time after treatment in hours. […]

MDA-MB-468 tumors [2] = test system: MDA-MB-468 tumors; set-up: species or system mice; conditions: mouse, in vivo
Experimental: The following materials and methods were used in this example. Human breast adenocarcinoma MDA-MB-468 cells were maintained in 1:1(v/v) Dulbecco's modified Eagle's medium (DMEM)/Ham's F-12 mixture supplemented with 10% fetal bovine serum (FBS) (Gibco Laboratories, Grand Island, N.Y.) at 37 C in 5% CO2/95% air. […] Mice in Group I were not treated and were used as a control. In Group II, mice were injected intravenous with PG-paclitaxel (PG-TXL) at an equivalent paclitaxel (Taxol, TXL) dose of 100 mg/kg 1 day before the injection of radiotracer. PG-TXL is a water-soluble polymeric conjugate of paclitaxel and poly(l-glutamic acid). […] The conjugate has the same mechanism of action as paclitaxel. […] Radioactivity of each sample was measured with the Cobra Auto-gamma Counter (Packard, Downers Grove, Ill.). The percentage of the injected dose per gram of tissue (% ID/g tissue) was calculated for each sample. In a separate experiment, tumors were histologically analyzed to quantify apoptotic index induced by drug treatments. […] Apoptosis index was scored in coded slides by microscopic examination at 400× magnification. Five fields of nonnecrotic areas were randomly selected in each histological specimen, and in each field the number of apoptotic nuclei were recorded as numbers per 100 nuclei and were expressed as a percentage. […]

[3] = test system: HL60 cells and Raji cells; experiment: Flow cytometry of apoptotic cells stained with annexin V-FITC; assay type: cell-based, human; conditions: 1.0 μM, 22 hours, annexin V-FITC staining
Experimental: The 1:30 and 1:60 preps of PEGylated annexin V were tested for their ability to bind to cells that had been treated with Ara-C to induce apoptosis. Human leukemia HL60 or human B-cell lymphoma Raji cells (1×10^6 cells/ml each) were treated with Ara-C at 1.0 μM for 6 hours or 22 hours to induce apoptosis. The cells were then washed twice with PBS and re-suspended in binding buffer (10 mM HEPES/NaOH, pH 7.5 containing 140 mM NaCl and 2.5 mM CaCl2) at a concentration of 1×10^6 cells/ml. Five μl annexin V-FITC solution (50 μg/ml in 50 mM Tris-HCl, pH 7.5, containing 100 mM NaCl) was added into the control cells as well as treated cells. The mixtures were incubated at room temperature for 10 minutes. Apoptotic cells stained with annexin V-FITC (Sigma) were quantified with a Labsystems Fluoroskan FL flow cytometer (Helsinki, Finland) (FIG. 13). […] The cells were washed twice with PBS, centrifuged and counted for cell-associated radioactivity (FIG. 14).
FIG. 13 is a bar graph showing apoptotic index after treatment with 1.0 uM Ara-C as quantified by flow cytometry analysis using annexin V-FITC as fluorescent probe. In FIG. 13, the y-axis represents the percent apoptotic cells; the x-axis represents the time after treatment in hours. […] In FIG. 14, the y-axis represents radioactivity in cpm; the x-axis represents time after treatment in hours. […]

[4] = set-up: species or system Nude mice; conditions: mouse, in vivo; for clearance / t1/2, α / t1/2, β / terminal half-life (rounded figures): iv
Experimental: At predetermined intervals, blood samples (30-60 μl) were taken from the medial saphenous vein by puncture, and the radioactivity of each sample was measured with a Cobra Autogamma counter (Packard, Downers Grove, Ill.). The pharmacokinetic parameters for each radiotracer were calculated from mean blood concentration values observed over the study period using WinNonlin™ 2.1 software (Scientific Consulting, Inc., Lexington, Ky.). The mice were killed at the end of the study, and the liver, muscle, kidneys, and spleen were removed, weighed, and measured for radioactivity. The data are expressed as percentage of injected dose per gram of tissue. In FIG. 15A, the y-axis represents % Injected dose/ml blood; the x-axis represents time in hours. Squares represent Annexin V. Diamonds represent PEG-Annexin V. In FIG. 15B, the y-axis represents % Injected dose/g tissue. From left to right, the paired bars in FIG. 15B represent blood, liver, kidney, spleen, and muscle tissues, respectively. The bars on the left of the paired bars represent Annexin V. The bars on the right of the paired bars represent PEG-Annexin V.

MDA-MB-468 tumors [5] = experiment: Autoradiography and TUNEL assay; assay type: in vivo, mice; conditions: 4 days after treatment, intratumoral distribution of ^111In-DTPA-PEG-AV
From the text: Two tumors removed from each group of mice at the end of the gamma imaging session were rapidly frozen, processed, and 8-μm sections were made. The sliced sections were fixed in cold acetone, dried, and exposed to a multipurpose storage phosphor screen for 10 days. A Cyclone™ Storage Phosphor System (Packard Instrument Company, Inc., Meriden, Conn.) was used to obtain autoradiographic images. The radioactivity at selected field of view is expressed as digital light unit per millimeter square (DLU/mm^2).
DNA fragmentation was analyzed by terminal deoxynucleotidyl transferase (TdT)-uridine nick end labeling (TUNEL) using a commercial kit according to the manufacturer provided protocol (Promega, Madison, Wis.). Frozen tissue sections (8 μm) were fixed with 4% paraformaldehyde (methanol-free) for 10 minutes at room temperature. The sections were washed with PBS two times (5 minutes each) and incubated with equilibration buffer (Promega) for 10 minutes at room temperature. […] Images were recorded using an Olympus fluorescence microscope (Olympus, Melville, N.Y.) with 520 nm filter and 20× object lens. Apoptotic cells per slide view were quantified by AAB colony counting software (Advanced American Biotechnology, Fullerton, Calif.) and expressed as number per field of view (0.016 mm^2).

1:30 prep of ^111In-DTPA-PEG-AV: ^111In-labeled annexin V PEGylated with SCN-PEG-DTPA at molar ratio 1:30
increase of cell associated radioactivity after treatment with Ara-C ([1]; HL60 and Raji cells): 4-6 fold | change of tumor uptake 1 day after PG-TXL (MDA-MB-468 tumors [2]): slight but non-significant increase of the radiotracer in the tumor

Nc1ccn([C@@H]2O[C@H](CO)[C@@H](O)[C@@H]2O)c(=O)n1 [Ara-C]
increase of percentage of apoptotic cells [3]: 4-10 fold

1:15 prep ^111In-DTPA-PEG-annexin V: ^111In-labeled annexin V PEGylated with SCN-PEG-DTPA, 1:15 prep
percentage of injected dose per gram of tissue, blood [4]: 0.36±0.05% | percentage of injected dose per gram of tissue, kidney [4]: 22.35±4.74% | percentage of injected dose per gram of tissue, liver [4]: 8.37±2.76% | percentage of injected dose per gram of tissue, muscle [4]: 0.75±0.04% | percentage of injected dose per gram of tissue, spleen [4]: 6.75±0.44% | clearance [4]: 0.01 mL/h | t1/2, α [4]: 4.90 h | t1/2, β [4]: 26.3 h | terminal half-life (rounded figures) [4]: 26 h

1:60 prep of ^111In-DTPA-PEG-AV: ^111In-labeled annexin V PEGylated with SCN-PEG-DTPA at molar ratio 1:60
binding to Ara-C treated cells ([1]; Raji cells): did not show binding to the Ara-C treated cells

^111In-DTPA-annexin V: ^111In-labeled annexin V with DTPA, without PEG; comparison [reference compound]
clearance [4]: 0.4 mL/h | t1/2, α [4]: 0.07 h | t1/2, β [4]: 17.4 h | terminal half-life (rounded figures) [4]: 17 h

poly (L-glutamic acid)-paclitaxel conjugate [PG-TXL]
apoptotic response of the tumor to treatment (MDA-MB-468 tumors [5]): increased apoptosis
